EC50 for ST (cytostatic effect, in vitro TJU experiments) data for one substance are collected here from patent US20040258687A1.

The target of the assay is guanylyl cyclase C (GC-C), as expressed on T84 human colon carcinoma cells (human) (UniProt P25092). Briefly: cell-based or functional assay.
guanylyl cyclase C (GC-C), as expressed on T84 human colon carcinoma cells (human), sequence (P25092 24-1073): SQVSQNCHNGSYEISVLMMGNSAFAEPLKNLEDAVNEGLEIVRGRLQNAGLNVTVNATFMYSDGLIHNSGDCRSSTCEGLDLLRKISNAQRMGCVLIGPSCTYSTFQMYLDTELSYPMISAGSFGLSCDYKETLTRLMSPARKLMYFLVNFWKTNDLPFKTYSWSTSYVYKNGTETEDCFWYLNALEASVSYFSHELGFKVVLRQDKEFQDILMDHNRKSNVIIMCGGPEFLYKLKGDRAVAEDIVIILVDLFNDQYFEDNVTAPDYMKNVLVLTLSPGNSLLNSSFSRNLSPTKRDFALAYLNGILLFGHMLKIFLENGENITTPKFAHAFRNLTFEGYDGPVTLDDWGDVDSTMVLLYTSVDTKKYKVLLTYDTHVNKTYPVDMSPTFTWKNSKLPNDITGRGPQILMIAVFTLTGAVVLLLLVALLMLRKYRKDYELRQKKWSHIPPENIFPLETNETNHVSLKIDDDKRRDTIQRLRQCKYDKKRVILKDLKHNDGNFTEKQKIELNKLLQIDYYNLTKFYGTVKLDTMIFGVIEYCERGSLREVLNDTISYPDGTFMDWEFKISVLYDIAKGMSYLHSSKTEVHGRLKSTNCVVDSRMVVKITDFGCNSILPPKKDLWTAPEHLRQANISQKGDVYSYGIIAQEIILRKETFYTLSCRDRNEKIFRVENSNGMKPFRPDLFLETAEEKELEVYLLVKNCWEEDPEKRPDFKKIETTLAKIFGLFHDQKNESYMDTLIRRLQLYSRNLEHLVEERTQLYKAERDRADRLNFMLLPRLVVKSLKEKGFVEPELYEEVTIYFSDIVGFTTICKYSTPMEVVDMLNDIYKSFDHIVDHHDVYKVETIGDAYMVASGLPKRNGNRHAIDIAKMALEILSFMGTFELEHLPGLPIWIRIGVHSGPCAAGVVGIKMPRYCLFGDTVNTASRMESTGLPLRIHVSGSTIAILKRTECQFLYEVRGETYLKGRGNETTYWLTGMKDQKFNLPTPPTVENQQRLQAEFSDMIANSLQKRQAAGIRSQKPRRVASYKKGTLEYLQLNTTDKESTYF

Regarding “E. coli heat-stable enterotoxin (ST) (peptide)”, the EC50 for ST (cytostatic effect, in vitro TJU experiments) stood at 10 nM.
